Assay [1] has as its target T1, human TF-His (human, UniProt P13726 33-251).
T1 construct: range 33-251; Recombinant extracellular segment expressed in HEK293-EBNA cells and purified on a nickel column; also called h.TF-His; h; TF-his; not shown: His tag from vector pTT5-His
Kind of assay: antigenic protein-based ELISA on TF antigen (coating antigen not named, taken as human TF-His), antibody diluted in human serum, 0 days at 37 C. The procedure: The ELISA plate was coated overnight with TF antigen (h.TF-His or c.TF-His antigen) in 50 mM carbonate coating buffer (CBS coating solution) at a coating concentration of 1 μg/mL in a volume of 100 μL at 4° C. The next day, the coating solution was removed, each well was washed once with 300 μL of PBS, and 100 μL of 2% BSA (Biotopped, A6020) in PBS was added to each well for blocking at 37° C. for 2 h. The test sample was subjected to a gradient dilution with 2% BSA in PBS to establish 11 concentration points. 100 μL of each of the samples obtained by the gradient dilution was added to the plate, and the plate was incubated at 37° C. for 2 h. The supernatant was removed, and each well was washed three times with 300 μL of PBST. 100 μL of HRP-conjugated secondary antibody in 2% BSA was added to each well, and the plate was incubated at 37° C. for 1 h. […] At the end of the incubation, the secondary antibody was removed, each well was washed five times with 300 μL of PBST, and 100 μL of TMB substrate (Huzhou InnoReagents Co., Ltd., TMB-S-004) was added to each well for color development for 5-20 min. 50 μL of 2 N HCl was added to each well to stop the reaction, and OD450 nm values were read using a microplate reader (manufacturer: MD, model: SpectraMax) and imported into GraphPad software for fitting and plotting to determine the binding of the samples to TF antigenic proteins. […]
Background: An ELISA detects its analyte on a solid surface through an enzyme-linked reagent.

The target of assay [2] is T2, tissue factor (TF) on the surface of TF-positive tumor cells (human, UniProt P13726 33-295). Kind of assay: cell-based or functional assay.
Assay [3] deals with T2, tissue factor (TF) on the surface of …. Kind of assay: flow cytometry on NCI-H358 cells. As to the method:
A TF low/medium-expressing cell line NCI-H358 (source: Nanjing Cobioer, CBP60136) and a TF high-expressing cell line KYSE520 (source: Nanjing Cobioer, CBP60658) were digested with trypsin, collected by centrifugation, and washed three times with pre-cooled PBS. The cells were resuspended in 1% BSA and seeded into a 96-well sharp-bottom plate at 3×10⁵ cells/well. Each of the antibodies obtained by the gradient dilution was added, and the plate was incubated at 4° C. for 1 h. The cells were washed three times with pre-cooled PBS. 1 μL of anti-human fluorescent secondary antibody (APC anti-human IgG Fc Antibody, Biolegend, 410712) was added to each well, and the plate was incubated at 4° C. for 0.5 h. The cells were washed three times with pre-cooled PBS, resuspended, and detected by a flow cytometer (Sony, LE-SA3800GA). The data were imported into GraphPad software for curve fitting.
Background: In flow cytometry, cells or beads pass a laser one at a time.

The target is the same in assay [4]. The experiment in a line: cell-based or functional assay. This is another data set of the same source.
For assay [5], the target named is T3, cynomolgus monkey TF-His (cynomolgus monkey, UniProt A0A2K5VX02 33-253).
T3 construct: range 33-252; Recombinant extracellular segment expressed in HEK293-EBNA cells and purified on a nickel column; also called c.TF-His; c; TF-his; not shown: His tag from vector pTT5-His
T3 sequence: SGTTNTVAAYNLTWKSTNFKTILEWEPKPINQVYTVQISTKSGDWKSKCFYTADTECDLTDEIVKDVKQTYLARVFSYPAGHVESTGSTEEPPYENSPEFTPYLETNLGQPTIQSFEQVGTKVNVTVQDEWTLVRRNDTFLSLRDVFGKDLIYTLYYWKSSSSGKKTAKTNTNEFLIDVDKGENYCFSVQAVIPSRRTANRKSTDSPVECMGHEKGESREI
Kind of assay: ELISA, plate coated with c.TF-His. As to the method:
(§1) The ELISA plate was coated overnight with TF antigen (h.TF-His or c.TF-His antigen) in 50 mM carbonate coating buffer (CBS coating solution) at a coating concentration of 1 μg/mL in a volume of 100 μL at 4° C. The next day, the coating solution was removed, each well was washed once with 300 μL of PBS, and 100 μL of 2% BSA (Biotopped, A6020) in PBS was added to each well for blocking at 37° C. for 2 h. The test sample was subjected to a gradient dilution with 2% BSA in PBS to establish 11 concentration points. 100 μL of each of the samples obtained by the gradient dilution was added to the plate, and the plate was incubated at 37° C. for 2 h. The supernatant was removed, and each well was washed three times with 300 μL of PBST. 100 μL of HRP-conjugated secondary antibody in 2% BSA was added to each well, and the plate was incubated at 37° C. for 1 h. […] At the end of the incubation, the secondary antibody was removed, each well was washed five times with 300 μL of PBST, and 100 μL of TMB substrate (Huzhou InnoReagents Co., Ltd., TMB-S-004) was added to each well for color development for 5-20 min. 50 μL of 2 N HCl was added to each well to stop the reaction, and OD450 nm values were read using a microplate reader (manufacturer: MD, model: SpectraMax) and imported into GraphPad software for fitting and plotting to determine the binding of the samples to TF antigenic proteins.
The assay was performed as described in the general methods. Briefly, an ELISA plate coated with a human TF-his protein or a cynomolgus monkey TF-his protein was blocked with 2% BSA at 37° C. for 2 h, and each of the antibodies obtained by the gradient dilution (starting at 10 μg/mL, 3-fold graded dilution, 11 concentration points) was added. The plate was incubated at 37° C. for 2 h.

Assay [6] deals with T1, human TF-His. Kind of assay: antigenic protein-based ELISA, before conjugation (TF antigen species not stated). As to the method: as §1
The target in assay [7] is T1, human TF-His. Kind of assay: BLI (ForteBio Octet), antibody on ProA sensor, TF-His as analyte. As to the method: (§2) The dynamic affinity of the humanized antibodies was determined by ForteBio. The experimental procedures were as follows: a ProA sensor (18-5010, Octet) was taken out and pre-wetted with a PBST diluent (pH 7.4) for 10 min. The antibodies to be immobilized were diluted to 5 μg/mL. […] The program was set up, the sensor plate and sample plate were put in, then the program started. The sensor was regenerated with 20 mM glycine solution (pH 1.7). The data were analyzed using Octet analysis software to derive a result graph.

In assay [8] the target is T3, cynomolgus monkey TF-His. The description is as above. The procedure: as §2

B1: 22F11H5-hz1 (antibody, human IgG1, kappa, V domains shown)
VH: QVQLVQSGAEVKQPGASVKVSCKASGYTFTTYWMHWVRQAPGQGLEWMGMIDPSDSYTTYAQKFQGRVTLTVDTSTSTAYMELSSLRSEDTAVYYCARGSGPGLFAYWGQGTLVTVSS
VL: DIQETQSPSSLSASVGDRVTITCRASQDIRNYLNWYQQKPGKAPKLLIYHTSRLQSGVPSRFSGSGSGTDYTLTISSLQPEDFATYYCQQGNMPPYTFGQGTKVEIKR
notes: Humanized IgG1 kappa
Usually EC50 (read off the curve) stands for the concentration at which the effect is half-maximal. For orientation: EC50 means the midpoint of the concentration-response curve. As a reminder, the Kd is the free concentration of one partner at which half of the binding sites on the other are occupied at equilibrium, for simple one-to-one binding. The koff is the rate constant with which the complex falls apart. For orientation: kon means a measure of how fast the partners come together. For B1, the “EC50 (read off the curve)” value in the assay with human TF-His [1] was about 0.03 µg/mL. Besides, in assay [2], the “IC50 (ng/mL), inhibition of FVIIa-induced IL-8 release by MDA-MB-231 cells” value amounted to 180 ng/mL and the “Maximum inhibition rate (%), FVIIa-induced IL-8 release by MDA-MB-231 cells” value amounted to 94.3%. In assay [3], the response was half-maximal at 0.0671 µg/mL (EC50). Moreover, in assay [4], the “coagulation time V50 (s), MDA-MB-231 cells + human plasma, 2 mM Ca2+, 50 µg/mL antibody” value is 1640 s and the “coagulation time V50 (s), MDA-MB-231 cells + human plasma, 5 mM Ca2+, 20 µg/mL antibody” value was determined as 49.4 s. This molecule also came in with an EC50 with cynomolgus monkey TF-His [5] of 0.0114 µg/mL. The molecule also registered an EC50 with human TF-His [6] of 0.00515 µg/mL. In the assay with human TF-His [7], this molecule gave a Kd of 9.8 nM, a koff of 0.00296 s⁻¹ and a kon of 302000 M⁻¹ s⁻¹. Besides, in the assay with cynomolgus monkey TF-His [8], the Kd came out at 12.7 nM, the koff turned out to be 0.00411 s⁻¹ and the kon stood at 324000 M⁻¹ s⁻¹.

B2: 27H8H3-hz1 (antibody, human IgG1, kappa, V domains shown)
VH: QVQLVQSGAEVKKPGASVKVSCKASGYTFTTYWMHWVRQAPGQGLEWMGMIDPSDSYTSYAQKFQGRVTLTVDTSTSTAYMELSSLRSEDTAVYYCTRGSGPGLFAYWGQGTLVTVSS
VL: DIQETQSPSSLSASVGDRVTITCRASQGISNYLNWYQQKPGKAPKLLIYHTSRLHSGVPSRFSGSVSGTDFTLTISSLQPEDFATYFCQQGNTLPYTFGQGTKVEIKR
notes: Humanized IgG1 kappa
With B2, the “EC50 (read off the curve)” value with human TF-His [1] is about 0.05 µg/mL. Moreover, in assay [2], the “IC50 (ng/mL), inhibition of FVIIa-induced IL-8 release by MDA-MB-231 cells” value came to 463 ng/mL and the “Maximum inhibition rate (%), FVIIa-induced IL-8 release by MDA-MB-231 cells” value was 100%. The molecule further registered an EC50 in assay [3] of 0.0991 µg/mL. In addition, in assay [4], the “coagulation time V50 (s), MDA-MB-231 cells + human plasma, 2 mM Ca2+, 50 µg/mL antibody” value amounted to 750 s and the “coagulation time V50 (s), MDA-MB-231 cells + human plasma, 5 mM Ca2+, 20 µg/mL antibody” value was found to be 26.2 s. Also, in the assay with cynomolgus monkey TF-His [5], the EC50 stood at 0.0114 µg/mL. For the same molecule, in the assay with human TF-His [6], the EC50 was 0.00313 µg/mL. For the same molecule, in the assay with human TF-His [7], the Kd worked out at 42.5 nM, the koff was found to be 0.0116 s⁻¹ and the kon was determined as 273000 M⁻¹ s⁻¹. Moreover, in the assay with cynomolgus monkey TF-His [8], the affinity, expressed as Kd, was 42.5 nM; the koff came to 0.0125 s⁻¹; the kon was found to be 295000 M⁻¹ s⁻¹.
